Assay results as given in patent US20180207271A1 (CENTRE HOSPITALIER UNIVERSITAIRE VAUDOIS CHUV, published 2018).

B2: recombinant human IL-26 (ligand, UniProt Q9NPH9 22-171, looked up)
chain: KHKQSSFTKSCYPRGTLSQAVDALYIKAAWLKATIPEDRIKNIRLLKKKTKKQFMKNCQFQEQLLSFFMEDVFGQLQLQGCKKIRFVEDFHSLRQKLSHCISCASSAREMKSITRMKRIFYRIGNKGIYKAISELDILLSWIKKLLESSQ
notes: In some functional rows the IL-26 is natural IL-26 in TH17 cell supernatants, as said in the readout; also called rhIL-26; AK155

Key:
recombinant human IL-26 = target: B2; test: ELISA screen of hybridomas
[1] = target: the molecule itself; test: small angle X-ray scattering (SAXS) of rhIL-26, self-association
Procedure: IL-26 was suspended in 16 mM sodium phosphate buffer, pH 6.5, 560 mM NaCl, 8% glycerol, 2 mM β-mercaptoethanol and concentrated to 1.1 mg/ml. Data were recorded at the ALS, Berkeley, Calif., beamline 12.3.1. (SIBYLS) at 10° C. using a wavelength of 1 A, for values of the momentum transfer vector q=(4π sin θ)/λ between 0.01 and 0.32 Å-1. The same sample was sequentially exposed to X-rays for 0.5s, 1s and 5s. Samples containing buffer only were measured before and after protein samples. The buffer contributions were subtracted from protein scattering data using the ogre new software program available at SIBYLS. Data were not affected by radiation damage as indicated by a constant Rg of the Guinier region for subsequent sample exposures. A combined SAXS pattern was obtained through scaling and merging selected regions of buffer-subtracted scattering pattern for the 0.5s, 1s and 5s exposures. Data between q=0.01 and 0.13 Å-1 were analyzed using PRIMUS, SASREF and DAMMIF of the ATSAS software package.

B1: anti-IL-26 mouse monoclonal antibody clone 142-84-B1 (antibody, V domains shown)
VH: QVQLQQSGAELVRPGASVTLSCKASGFTFPDYEIHWVRQTPVHGLEWIGGIDPETGDTANNQKFKGKATLTADTSSSTAYMELRSLTSEDSAVYYCTRFYGSFDYWDQGTTLTVSS
VL: NIMMTQSPSSLAVSAGEKVTLSCKSSQSVLYSSNQKNYLAWYQQKPGQSPKLLIYWASTRESGVPDRFTGSGSGTDFTLTISSVQAEDLAVYYCHQYLSSYTFGGGTKLEIK
notes: Mouse hybridoma antibody, IgG1; also called clone 84
Q: Does B1 bind (recombinant human IL-26)?
A: binds

Q: Does B2 bind [1]?
A: binds
